Laboratory results as given in article PMC7827474, “DnaJ Proteins Regulate WUS Expression in Shoot Apical Meristem of Arabidopsis”.

Legend:
MBP:WUS = target: T1, MBP:WUS (Arabidopsis thaliana, UniProt Q9SB92 1-292); test: EMSA; EMSA: 10 mM HEPES pH 7.8, 20 mM KCl, 1 mM MgCl2, 21 mM DTT (so in the source), 7.5% glycerol, 0.5% Triton-100, 300 ng carrier DNA, 0.02% BSA, 10 uL, 22 C, 30 min; 8%; conditions: protein: recombinant; tags: MBP; chain copies: 2; label: Texas Red (3' end per Methods); blunt
T1 sequence: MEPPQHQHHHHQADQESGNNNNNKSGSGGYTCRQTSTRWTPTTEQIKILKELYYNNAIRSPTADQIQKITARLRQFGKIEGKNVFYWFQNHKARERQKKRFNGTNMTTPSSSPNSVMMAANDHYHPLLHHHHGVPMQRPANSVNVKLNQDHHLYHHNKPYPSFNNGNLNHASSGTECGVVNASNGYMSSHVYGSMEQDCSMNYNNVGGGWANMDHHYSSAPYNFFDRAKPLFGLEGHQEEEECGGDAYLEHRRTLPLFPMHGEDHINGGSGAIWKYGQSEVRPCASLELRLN

MBP:WUS;MBP:SDJ3 = target: T2, MBP:WUS;MBP:SDJ3 (Arabidopsis thaliana;Arabidopsis …, UniProt Q9SB92;F4I0F5 1-292;1-797, |); test: EMSA; more efficient than WUS alone; EMSA: 10 mM HEPES pH 7.8, 20 mM KCl, 1 mM MgCl2, 21 mM DTT (so in the source), 7.5% glycerol, 0.5% Triton-100, 300 ng carrier DNA, 0.02% BSA, 10 uL, 22 C, 30 min; 8%; conditions: protein: recombinant;recombinant; tags: MBP;MBP; label: Texas Red (3' end per Methods); blunt
T2 sequence 1: T1 sequence
T2 sequence 2: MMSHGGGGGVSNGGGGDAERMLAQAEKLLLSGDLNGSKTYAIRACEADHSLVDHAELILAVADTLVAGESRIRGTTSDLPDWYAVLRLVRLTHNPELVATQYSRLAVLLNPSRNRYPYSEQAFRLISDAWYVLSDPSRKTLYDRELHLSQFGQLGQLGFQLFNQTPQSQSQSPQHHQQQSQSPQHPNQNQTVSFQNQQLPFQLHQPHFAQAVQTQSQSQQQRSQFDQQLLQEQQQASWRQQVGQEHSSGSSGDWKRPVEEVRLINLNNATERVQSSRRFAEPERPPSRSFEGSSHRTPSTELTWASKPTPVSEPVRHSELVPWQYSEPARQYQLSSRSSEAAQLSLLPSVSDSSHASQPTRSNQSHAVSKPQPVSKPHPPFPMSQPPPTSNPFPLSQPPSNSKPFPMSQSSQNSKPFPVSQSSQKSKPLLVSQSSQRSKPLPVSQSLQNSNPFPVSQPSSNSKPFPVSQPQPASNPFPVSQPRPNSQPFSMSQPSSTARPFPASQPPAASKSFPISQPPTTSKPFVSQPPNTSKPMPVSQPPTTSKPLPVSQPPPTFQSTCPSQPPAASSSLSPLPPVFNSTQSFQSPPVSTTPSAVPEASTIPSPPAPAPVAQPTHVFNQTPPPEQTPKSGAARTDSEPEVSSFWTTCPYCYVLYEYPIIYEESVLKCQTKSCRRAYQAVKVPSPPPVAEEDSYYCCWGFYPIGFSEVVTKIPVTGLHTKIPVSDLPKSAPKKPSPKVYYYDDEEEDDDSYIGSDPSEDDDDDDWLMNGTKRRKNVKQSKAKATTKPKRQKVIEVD

MBP:WUS;MBP:At5g09540 = target: T3, MBP:WUS;MBP:At5g09540 (Arabidopsis thaliana;Arabidopsis …, UniProt Q9SB92;A2RVL3 1-292;1-280, |); test: as above; conditions: protein: recombinant;recombinant; tags: MBP;MBP; label: Texas Red (3' end per Methods); blunt
T3 sequence 1: T1 sequence
T3 sequence 2: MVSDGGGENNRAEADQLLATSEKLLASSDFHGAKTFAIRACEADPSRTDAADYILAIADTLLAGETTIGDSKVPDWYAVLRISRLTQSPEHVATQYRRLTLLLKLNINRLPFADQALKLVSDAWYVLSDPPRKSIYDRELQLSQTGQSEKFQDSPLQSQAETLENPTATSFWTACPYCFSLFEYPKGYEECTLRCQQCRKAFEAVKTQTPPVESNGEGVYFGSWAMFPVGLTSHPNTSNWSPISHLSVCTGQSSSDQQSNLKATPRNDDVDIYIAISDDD

Measured: binding result

B1: WUS promoter probe (pWUS) (dsDNA)
DNA 1: CTAGAATGAATAATAAAAAAAGTGAAAACCGTTTGATCATAA
DNA 2: TTATGATCAAACGGTTTTCACTTTTTTTATTATTCATTCTAG
binds: MBP:WUS | MBP:WUS;MBP:SDJ3 | MBP:WUS;MBP:At5g09540
